Molecular target: histone octamer

nucleosome formation fraction (package ratio, 15 min) of tethered 836-bp DNA in single-molecule TPM, 7.5 nM histone octamer pre-incubated with 15 nM yNap1, 150 mM NaCl (87.3 % without chaperone): 70.5%
Substance: nucleosome assembly protein 1 (yNap1) (from UniProt P25293 1-417) (natural protein)

— PMC4303269
